In the supplement of paper PMC9170038:

Test system: MS2 coat protein
Assay: apparent KD of MS2 coat protein; designed switch direction (-1 OFF switch, 1 ON switch): 1; higher = weaker reporter binding
Summary of the method: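 Stalled E. coli RNA polymerase transcribed designed RNA switches on Illumina chips, which were then titrated with SNAP-549-labelled MS2 coat protein, doubling from 0.7 or 1.5 nM to 3 µM. Steps lasted from 0.8–1.5 h at the lowest concentration to 10–20 min at the highest. The apparent KD is each design's median over clusters of curve-fitted normalised fluorescence.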

[1] = input ligand: microRNA oligo, concentration not stated
[2] = Eterna round: R95, input ligand: FMN 200 uM
[3] = Eterna round: R95, input ligand: microRNA oligo, concentration not stated
[4] = Eterna round: R95, input ligand: none

Sequence | apparent KD of MS2 coat protein (input ligand: FMN 200 uM) | apparent KD of MS2 coat protein [1] | apparent KD of MS2 coat protein (input ligand: none) | apparent KD of MS2 coat protein [2] | apparent KD of MS2 coat protein [3] | apparent KD of MS2 coat protein [4]
AUAAGAAACACAGGAUAUACCGCACUUAACGCGGUAGAAGGGUGGGACAUGAGGAUCACCCAUGUGGCCCGGGCGCCGGACCGC [Edquzative] (Eterna round: R96, puzzle: Same State NG 1) | 556 nM | 10 nM | 122 nM |  |  | 
AUAAGUUCGAUGCUCGUCUCUCCGUACAAACAUGAGGAUCACCCAUGUGGUCAGGAAGUAGCCCGACCAGUAUGGCC [Leedqu] (puzzle: Sensor for hsa-mir-208a) |  |  |  | 29 nM | 24.6 nM | 34 nM
AUAAUACAUGAGGAUCACCCAUGUAAUUUAACUUGUAAGAUCAAGGAUAUCAGCUCGAAUAGAGCUGAGAAGGUGAUCACAUGU [SSNG3/20-A1] (Eterna round: R96, puzzle: Same State NG 3) |  | 70.7 nM |  |  |  | 
AUACAUGAGGAUCACCCAUGUAAUUAAUUAACUAGUAAGAUCUAGGAUAUCAGCUCGUUUAGAGCUGAGAAGGAGAUCACAUGU [SSNG3/21-A3] (Eterna round: R96, puzzle: Same State NG 3) |  | 28.8 nM |  |  |  | 
AUACCGUGCCAAGGAUAUGGUGUAAACACAUGAGGAUCACCCAUGUCAGAGAGUCGAGCGACUAGCUAGAAGGUGGUAUGGGAA [Eternabot solution 9] (Eterna round: R96, puzzle: Same State NG 2) | 112 nM | 149 nM | 393 nM |  |  | 
AUAGUUUCCGAAGGAUAUGAUGAGGAUCACCCAUCAGAAGGUUGGCUAUUGGGCUGACAUGAGGAUCACCCAUGUUCCGGUGUU (Eterna round: R96, puzzle: Same State NG 1) | 33.7 nM | 31.9 nM | 43.3 nM |  |  | 
AUCAUUAAUGCAGGAUAUGAUUAACAUGAGGAUCACCCAUGUGGUGUUGUGAGUAAGGAGAGUGAUCAGAAGGGCAUUUUUUUU [JMF's solution 35] (Eterna round: R96, puzzle: Same State NG 2) | 699 nM | 292 nM | 469 nM |  |  | 
AUCCUACAUGAGGAUCACCCAUGUGACGCCUCAAUAGGAUAUGCGUGUGCCUUGGCGCAUGCAGAAGGAUUGAAGC [JL Aveso mod 1] (puzzle: Same State 1) |  |  |  |  | 295 nM | 
AUGAAGAAUUAAGGAUAUUGAUUACAUAUGUUUAACAUGAGGAUCACCCAUGUGGGUUGCGGUAUCGAGAAGGUAAAUUAAUAG [Mat - same State NG 2 - JL mod - D84] (Eterna round: R96, puzzle: Same State NG 2) | 187 nM | 129 nM | 196 nM |  |  | 
AUGAAUUUGCGAGGAUAUCGUUUGUUGAAGUUACGAGAAGGCGCUCACUUUACAUGAGGAUCACCCAUGUUUAUGAUAUAUGAU [JR_SSNG1_Sub074] (Eterna round: R96, puzzle: Same State NG 1) | 24.1 nM | 30 nM | 37.1 nM |  |  | 
AUUAAACAUGAGGAUCACCCAUGUCAACAAAGUCGAGGAUAUGGGCAAAUUAAAUAAGAACCAGAAGGCGAAUAAU [salish99_ss1_r3_060] (puzzle: Same State 1) |  |  |  | 35.9 nM | 189 nM | 269 nM
AUUAAUUAAUUAAUACAUGAGGAUCACCCAUGUAAUAAGAUCAAGGAUAUCAGCUCGAAUAGAGCUGAGAAGGUGAUCACAUGU [SSNG3/17-B1] (Eterna round: R96, puzzle: Same State NG 3) |  | 337 nM |  |  |  | 
AUUAUACAUGAGGAUCACCCAUGUAAUUAAUCUAGUAAGAUCUAGGAUAUCAGCUCGAUUAGAGCUGAGAAGGAGAUCACAUGU [SSNG3/20-D2] (Eterna round: R96, puzzle: Same State NG 3) |  | 42.9 nM |  |  |  | 
AUUAUACAUGAGGAUCACCCAUGUAAUUAAUUAAUUAAGAUCAAGGAUAUCAGCUCGAUUAGAGCUGAGAAGGUGAUCACAUGU [SSNG3/20-B2] (Eterna round: R96, puzzle: Same State NG 3) |  | 170 nM |  |  |  | 
AUUAUUAAUGCAGGAUAUGAUUAACAUGAGGAUCACCCAUGUGGUGUUGUGAGUAAGGAGAGUGAUCAGAAGGGCAUUUUUUUU [JMF's solution 6] (Eterna round: R96, puzzle: Same State NG 2) |  | 463 nM |  |  |  | 
AUUAUUUCAUGAGGAUAUGGCACCUUAUUGGUGCCAGAAGGCAUGUCUAUUGACAUGAGGAUCACCCAUGUAUUAAAUUAUAUA [Eli NG1ss - 89] (Eterna round: R96, puzzle: Same State NG 1) |  | 387 nM |  |  |  | 
AUUCGAUAGAUAGGAUAUCACCAUACAUGAGGAUCACCCAUGUUGACCACGCUGGUUAUUCAUACUGAGAAGGAUCUUGAUGAC [JR_SSNG2_Sub005] (Eterna round: R96, puzzle: Same State NG 2) | 27.8 nM | 31.1 nM | 52.2 nM |  |  | 
AUUGCUAUCACAGGAUAUCAUGCGAAAAUCGCGUGAGAAGGGUGGACUCUGUCAUUCACGGAGGACAUGAGGAUCACCCAUGUC [SS NG10LRO16] (Eterna round: R96, puzzle: Same State NG 1) | 363 nM | 18.9 nM | 45.8 nM |  |  | 
AUUGGGUAACGAGGAUAUCGUUUUUGUUUUUUUCGAGAAGGCGUUAUAGUUUCUUUCUAUUGUUACAUGAGGAUCACCCAUGUU [JR_SSNG1_Sub053] (Eterna round: R96, puzzle: Same State NG 1) | 15.8 nM | 16.2 nM | 16.5 nM |  |  | 
AUUGUUAAUGCAGGAUAUGAUUAACAUGAGGAUCACCCAUGUGGUGUUGUGAGUAAGGAGAGUGAUCAGAAGGGCAUUUUUUUU [JMF's solution 31] (Eterna round: R96, puzzle: Same State NG 2) | 826 nM | 810 nM | 616 nM |  |  | 
AUUUAACAAGCUUUUUGCUCGUCUUAUAAACAUGAGGAUCACCCAUGUAAUAGCGUGAGAGUAAAUAAUUUAAUAAU [JMF 98] (puzzle: Sensor for hsa-mir-208a) |  |  |  | 12.9 nM | 53.2 nM | 
AUUUUUAAUGCAGGAUAUGAUUAACAUGAGGAUCACCCAUGUGGUGUUGUGAGUAAGGAGAGUGAUCAGAAGGGCAUUUUUUUU [JMF's solution 30] (Eterna round: R96, puzzle: Same State NG 2) | 726 nM | 354 nM | 456 nM |  |  | 
AUUUUUUAUGCAGGAUAUGAUUAACAUGAGGAUCACCCAUGUGGUGUUGUGAGUAAGGAGAGUGAUCAGAAGGGCAUUUUUUUU [JMF's solution 68] (Eterna round: R96, puzzle: Same State NG 2) | 579 nM | 318 nM | 401 nM |  |  | 
CACCAGAGAGCAGGAUAUGGGCCACGGCCUAAGGGCUGUGAACUCACAUGAGGAUCACCCAUGUCCCAGAAGGGCUCCUGGCUA [Getiised] (Eterna round: R96, puzzle: Same State NG 2) | 98.3 nM | 602 nM | 842 nM |  |  | 
CACGUCUCGGUAGGAUAUGAGGUGCCAUAGGGAACAGCCUAUGGACAUGAGGAUCACCCAUGUCCUCAGAAGGGCCGGACGUGA [Leonis] (Eterna round: R96, puzzle: Same State NG 2) | 18.1 nM | 48.9 nM | 68.2 nM |  |  | 
CAUCGUUUGAUAGGAUAUCGCUAUACAUGAGGAUCACCCAUGUUUACCACGCUGGUUUUUCAUACCGAGAAGGAUUCUGAUGAC [salish99_SSNG02_r04_014] (Eterna round: R96, puzzle: Same State NG 2) | 27.3 nM | 27.7 nM | 30.2 nM |  |  | 
CCAACGUACAAUUUAGAUCUACAUGAGGAUCACCCAUGUACGGAGGAUAUCAGCUCGAUUAGAGCUGAGAAGGCCGAAUUAAUU [SSNG3/2-A2] (Eterna round: R96, puzzle: Same State NG 3) | 65.7 nM | 119 nM | 430 nM |  |  | 
CCAAUGUACAAUUUAGAUCUACAUGAGGAUCACCCAUGUACAGAGGAUAUCAGCUCGUUUAGAGCUGAGAAGGCUGAAUUAAUU [SSNG3/3-A3] (Eterna round: R96, puzzle: Same State NG 3) | 111 nM | 139 nM | 327 nM |  |  | 
CCCUCACAUGAGGAUCACCCAUGUCCUAGCAGGUCAGGAUAUAGCCCGCAUCCGCUGCGGCUAGAAGGGACAGCUG [JR_SS001_Sub610] (Eterna round: R96, puzzle: Same State 1) | 148 nM | 135 nM | 176 nM |  |  | 
